Legend:
P-Villin = biological target: T1, P-Villin (Homo sapiens, UniProt P09327); assay: Multiplate ELISA binding of GST-Jak3 and truncated Jak3 fusion proteins to P-Villin
T1 construct: made in house; host or cells: E. coli TKX1 (pGEX2T vector)
T1 sequence (P09327 1-827): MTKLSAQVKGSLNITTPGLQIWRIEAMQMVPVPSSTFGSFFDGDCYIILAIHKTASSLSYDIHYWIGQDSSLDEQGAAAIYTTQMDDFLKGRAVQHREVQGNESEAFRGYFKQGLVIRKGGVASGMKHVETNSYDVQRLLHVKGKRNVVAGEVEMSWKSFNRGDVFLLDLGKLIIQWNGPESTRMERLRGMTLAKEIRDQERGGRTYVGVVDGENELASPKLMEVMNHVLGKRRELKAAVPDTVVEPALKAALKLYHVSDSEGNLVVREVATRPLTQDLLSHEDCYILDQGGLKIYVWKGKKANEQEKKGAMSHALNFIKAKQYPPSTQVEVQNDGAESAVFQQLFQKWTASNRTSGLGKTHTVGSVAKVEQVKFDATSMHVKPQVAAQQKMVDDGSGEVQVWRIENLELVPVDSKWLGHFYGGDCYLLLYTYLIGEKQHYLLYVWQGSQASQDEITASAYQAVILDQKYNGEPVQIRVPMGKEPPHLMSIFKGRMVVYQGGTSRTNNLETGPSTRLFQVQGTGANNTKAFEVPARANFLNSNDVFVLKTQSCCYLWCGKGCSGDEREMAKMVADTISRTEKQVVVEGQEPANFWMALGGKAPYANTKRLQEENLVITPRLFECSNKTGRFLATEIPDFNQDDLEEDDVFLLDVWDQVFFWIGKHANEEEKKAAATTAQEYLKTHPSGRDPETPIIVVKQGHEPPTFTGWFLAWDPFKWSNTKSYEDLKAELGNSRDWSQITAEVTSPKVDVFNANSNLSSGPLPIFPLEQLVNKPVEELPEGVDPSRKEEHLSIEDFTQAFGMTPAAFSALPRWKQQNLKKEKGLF
Experimental: Absorbance values for wells containing P-Villin contacted with GST alone were used as control, and data presented on the ordinate axis represent absorbance values after subtraction of control values.
(§1) To determine the ability of Jak3 to interact with natural compounds including biomolecules, binding studies were performed in a multiplate using the cytoskeletal protein, Villin, known in the art to be a substrate for P-Jak3. Multiplates pre-coated with P-Villin were contacted with increasing concentrations of GST-P-Jak3 fusion protein (test samples) or GST alone (control sample). Binding levels were measured using GST antibody as the primary binding partner, horse radish peroxidase conjugated antibody as the secondary binding partner and 3,3′,5,5′-tetramethylbenzidine as the colorimetric substrate. Raw absorbance data for the control samples were subtracted from the absorbance for the test samples to obtain the corrected absorbance values.
To determine whether the kinase domains of Jak3 are critical for Villin binding, recombinant GST-truncated-Jak3 fusion proteins shown in FIGS. 2C-2E were expressed in BL21 (for non-phosphorylated proteins) or TKX1 (for phosphorylated proteins) cells, and purified. Multiplates pre-coated with P-Villin were contacted with these GST-tagged recombinant truncated-Jak3 or with GST-tagged recombinant WT-Jak3, and binding measured as described supra.

[1] = biological target: T2, GST-P-Jak3 fusion protein (Mus musculus, UniProt Q62137); assay: Multiplate ELISA binding of P-Villin to GST-P-Jak3
T2 construct: made in house; host or cells: E. coli TKX1 (pGEX-4T vector)
T2 sequence (Q62137 with tags, fused parts or gaps): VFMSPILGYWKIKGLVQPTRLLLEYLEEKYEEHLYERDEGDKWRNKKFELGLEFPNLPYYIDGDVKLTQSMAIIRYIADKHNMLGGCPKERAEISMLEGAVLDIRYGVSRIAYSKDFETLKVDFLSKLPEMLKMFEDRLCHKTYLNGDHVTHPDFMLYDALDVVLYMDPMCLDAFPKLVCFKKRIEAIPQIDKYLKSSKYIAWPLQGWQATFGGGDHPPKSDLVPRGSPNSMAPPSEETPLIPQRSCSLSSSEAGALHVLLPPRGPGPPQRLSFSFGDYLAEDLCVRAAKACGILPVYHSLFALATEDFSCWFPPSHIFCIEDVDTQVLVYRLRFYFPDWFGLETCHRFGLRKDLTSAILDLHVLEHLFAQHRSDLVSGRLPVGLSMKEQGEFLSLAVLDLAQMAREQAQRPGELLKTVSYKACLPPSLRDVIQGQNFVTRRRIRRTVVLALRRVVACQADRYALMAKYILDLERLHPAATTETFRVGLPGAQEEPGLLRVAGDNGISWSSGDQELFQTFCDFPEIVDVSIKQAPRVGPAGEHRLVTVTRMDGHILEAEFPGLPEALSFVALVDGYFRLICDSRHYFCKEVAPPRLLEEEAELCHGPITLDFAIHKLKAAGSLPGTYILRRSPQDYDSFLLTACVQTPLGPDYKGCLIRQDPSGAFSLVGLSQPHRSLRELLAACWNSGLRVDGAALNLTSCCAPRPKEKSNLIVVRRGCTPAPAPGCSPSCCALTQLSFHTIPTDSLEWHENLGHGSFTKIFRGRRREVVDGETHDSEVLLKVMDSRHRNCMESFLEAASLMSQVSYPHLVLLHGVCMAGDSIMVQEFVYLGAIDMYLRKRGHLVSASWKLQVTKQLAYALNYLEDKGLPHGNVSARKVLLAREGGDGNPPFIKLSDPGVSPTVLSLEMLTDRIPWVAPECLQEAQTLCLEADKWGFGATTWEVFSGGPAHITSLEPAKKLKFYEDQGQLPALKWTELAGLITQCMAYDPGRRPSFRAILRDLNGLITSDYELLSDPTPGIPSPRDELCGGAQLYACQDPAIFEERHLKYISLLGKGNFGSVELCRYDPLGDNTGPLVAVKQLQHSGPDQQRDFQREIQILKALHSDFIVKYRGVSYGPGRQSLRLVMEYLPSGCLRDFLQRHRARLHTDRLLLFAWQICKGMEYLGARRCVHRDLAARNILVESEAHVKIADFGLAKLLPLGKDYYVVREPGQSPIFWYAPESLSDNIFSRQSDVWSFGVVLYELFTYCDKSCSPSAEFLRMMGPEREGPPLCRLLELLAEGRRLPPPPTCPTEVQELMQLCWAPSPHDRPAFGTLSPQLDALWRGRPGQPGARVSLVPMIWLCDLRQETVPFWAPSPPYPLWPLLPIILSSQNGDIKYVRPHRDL
Experimental: GST is the reporter protein and the primary binding partner is a GST antibody.
as §1

## P-WT-Jak3: phosphorylated GST-WT-Jak3 fusion protein (SEQ ID NO: 11) expressed in TKX1
P-Villin; plates pre-coated with P-Villin, read-out: dissociation constant (Kd)
  Kd: 23 nM

## WT-Jak3: non-phosphorylated GST-WT-Jak3 fusion protein (SEQ ID NO. 7) expressed in BL21
P-Villin; FIG. 8A, GST-alone control subtracted
  level of binding to P-Villin: relatively lower level of binding

B1: P-Villin: recombinant phosphorylated cytoskeletal protein Villin expressed in E. coli TKX1 (protein)
chain: MTKLSAQVKGSLNITTPGLQIWRIEAMQMVPVPSSTFGSFFDGDCYIILAIHKTASSLSYDIHYWIGQDSSLDEQGAAAIYTTQMDDFLKGRAVQHREVQGNESEAFRGYFKQGLVIRKGGVASGMKHVETNSYDVQRLLHVKGKRNVVAGEVEMSWKSFNRGDVFLLDLGKLIIQWNGPESTRMERLRGMTLAKEIRDQERGGRTYVGVVDGENELASPKLMEVMNHVLGKRRELKAAVPDTVVEPALKAALKLYHVSDSEGNLVVREVATRPLTQDLLSHEDCYILDQGGLKIYVWKGKKANEQEKKGAMSHALNFIKAKQYPPSTQVEVQNDGAESAVFQQLFQKWTASNRTSGLGKTHTVGSVAKVEQVKFDATSMHVKPQVAAQQKMVDDGSGEVQVWRIENLELVPVDSKWLGHFYGGDCYLLLYTYLIGEKQHYLLYVWQGSQASQDEITASAYQAVILDQKYNGEPVQIRVPMGKEPPHLMSIFKGRMVVYQGGTSRTNNLETGPSTRLFQVQGTGANNTKAFEVPARANFLNSNDVFVLKTQSCCYLWCGKGCSGDEREMAKMVADTISRTEKQVVVEGQEPANFWMALGGKAPYANTKRLQEENLVITPRLFECSNKTGRFLATEIPDFNQDDLEEDDVFLLDVWDQVFFWIGKHANEEEKKAAATTAQEYLKTHPSGRDPETPIIVVKQGHEPPTFTGWFLAWDPFKWSNTKSYEDLKAELGNSRDWSQITAEVTSPKVDVFNANSNLSSGPLPIFPLEQLVNKPVEELPEGVDPSRKEEHLSIEDFTQAFGMTPAAFSALPRWKQQNLKKEKGLF
[1]; plates pre-coated with P-Villin, P-Jak3 0-400 nM, GST control subtracted, read-out: dissociation constant (Kd)
  Kd: 23 nM
[1]; rearranged Hill equation plot
  Hill coefficient (h): 3.7
